Patent US20250129166A1 (Five Prime, published 2025)

Legend:
[1] = target: T1, monovalent hVISTA-ECD (amino acids 32-193 of SEQ ID NO: 1 with a 7xHis tail) (human, UniProt Q9H7M9 33-193); assay: SPR, mAb captured on Protein A, hVISTA-ECD analyte, 37 C, pH 6.7
T1 construct: also called huVISTA-His; human VISTA-ECD
Protocol: (§1) Binding kinetics were measured using a Biacore® T100 instrument (GE Healthcare). Protein A (ThermoFisher Scientific catalog #21181) was diluted to 20 μg/ml in 10 mM sodium acetate pH 4.5 and immobilized onto flow cells of a CM5 biosensor following the manufacturer's amine coupling protocol (GE Healthcare), targeting 2,000 RU immobilization density of Protein A per flow cell. The assay was conducted at 37° C. using PBST (137 mM sodium chloride, 2.7 mM potassium chloride, 10 mM phosphate buffer, 0.05% Tween 20) running buffer at pH 7.4, 6.7 and 6.0. Antibodies were diluted to 25 nM in PBST pH 7.4, and were captured across active biosensor flow cells at 5 ul/min for 40 seconds. A concentration series of 100-10 nM monovalent hVISTA-ECD (SEQ ID NO: 325) was prepared in pH 7.4, 6.7 and 6.0 running buffers, and was injected over the captured antibodies at 40 ul/min to measure association and dissociation. Two 15 second injections of 10 mM glycine pH 1.5 were used to regenerate the Protein A capture surface between assay cycles. Rate constants ka (kon) and kd (koff) were derived from reference flow cell and 0 nM blank-subtracted sensorgrams, and were fit to a 1:1 binding model in Biacore® T200 Evaluation Software v.2.0.
(§2) The affinity constant, KD was calculated as the ratio of rate constants koff/kₒₙ for each VISTA antibody. The % Rmax was calculated to compare how pH affects an antibody's binding capacity for VISTA, and represents the measured maximal VISTA binding response relative to the expected maximal VISTA binding response. The % Rmax is defined as the ratio of the reference-subtracted ‘binding’ report point response at the end of the 100 nM VISTA injection for each antibody (Rmax) relative to the expected VISTA binding response (Rexp). Rexp is calculated as Rexp=[(VISTA-ECD molecular weight/mAb molecular weight)×(mAb ‘capture’ report point response (RUs)]×2 binding sites per mAb.

[2] = target: T1, monovalent hVISTA-ECD (amino acids …); assay: SPR, mAb captured on Protein A, hVISTA-ECD analyte, 37 C, pH 7.4
Protocol: as §1, §2

[3] = target: T1, monovalent hVISTA-ECD (amino acids …); assay: SPR, mAb captured on Protein A, hVISTA-ECD analyte, 37 C, pH 6.0
Protocol: as §1, §2

[4] = target: T1, monovalent hVISTA-ECD (amino acids …); assay: SPR, mAb captured on Protein A, hVISTA-ECD analyte, 37 C, pH 6.7; remark: listed apart in the source
Protocol: as §1, §2

[5] = target: T1, monovalent hVISTA-ECD (amino acids …); assay: SPR, mAb captured on Protein A, hVISTA-ECD analyte, 37 C, pH 6.0; remark: listed apart in the source
Protocol: as §1, §2

[6] = target: T1, monovalent hVISTA-ECD (amino acids …); assay: SPR, mAb on Protein A, 37C, pH 6.0; pH 6.0
Protocol: Binding of several preparations of each of the '029 progeny clones and of the parent '029 antibodies, formatted as IgG1.3 antibodies, to human VISTA at pH 6.0 and 7.4 was measured by Surface plasmon resonance (SPR). SPR analysis was performed to measure koff and KD binding affinity measurements for VISTA Abs at acidic and neutral pHs using a Biacore® T100 instrument (GE Healthcare). Protein A (ThermoFisher Scientific catalog #21181) was diluted to 20 μg/ml in 10 mM sodium acetate pH 4.5 and immobilized onto flow cells of a CM5 biosensor following the manufacturer's amine coupling protocol (GE Healthcare), targeting 2,000 RU immobilization density of Protein A per flow cell. SPR experiments were conducted at 37° C. using PBST (137 mM sodium chloride, 2.7 mM potassium chloride, 10 mM phosphate buffer, 0.05% Tween® 20) running buffer at pH 7.4 and 6.0. Antibodies were diluted to 25 nM in PBST pH 7.4, and were captured across active biosensor flow cells at 5 ul/min for 60 seconds. A concentration series of 50-5 nM monovalent hVISTA-ECD (SEQ ID NO: 325) was prepared in pH 7.4 and 6.0 running buffers, and was injected over the captured antibodies at 40 ul/min to measure association and dissociation. Two 15 second injections of 10 mM glycine pH 1.5 were used to regenerate the Protein A capture surface between assay cycles. Rate constants ka (kₒₙ) and kd (koff) were derived from reference flow cell and 0 nM blank-subtracted sensorgrams, and were fit to a 1:1 binding model in Biacore® T200 Evaluation Software v.2.0. The affinity constant, KD was calculated as the ratio of rate constants koff/kₒₙ for each VISTA antibody.

Row | koff [1] | koff [2] | koff [3] | koff [4] | koff [5] | Binder | other results
1 | – | – | – | 0.026 s⁻¹ | – | P1-068767_E100fF (antibody, human IgG1, kappa, V domains shown, also called P1-070910) VH: EVQLVESGGGLVQPGKSLRLSCAASGFTLEDYAMHWVRQAPGKGLEWVSGIDWNSENIGYADSVKGRFTISRDNAKNSLYLQMNSLRTEDTALYYCAKVPGYSGGWIDAFDDWGQGTMVTVSS VL: not shown | –
2 | – | – | – | – | 0.0023 s⁻¹ | P1-068767_E30D_D52N (antibody, human IgG1, kappa, V domains shown, also called P1-070914) VH: EVQLVESGGGLVQPGKSLRLSCAASGFTLDDYAMHWVRQAPGKGLEWVSGINWNSENIGYADSVKGRFTISRDNAKNSLYLQMNSLRTEDTALYYCAKVPGYSGGWIDAEDDWGQGTMVTVSS VL: not shown | –
3 | – | – | – | 0.0067 s⁻¹ | 0.0015 s⁻¹ | P1-070906 (P1-068767_D52N) IgG1.3 (antibody, V domains shown, IgG1.3) VH: EVQLVESGGGLVQPGKSLRLSCAASGFTLEDYAMHWVRQAPGKGLEWVSGINWNSENIGYADSVKGRFTISRDNAKNSLYLQMNSLRTEDTALYYCAKVPGYSGGWIDAEDDWGQGTMVTVSS VL: not shown | Kd [6]: 6.7 nM; koff [6]: 0.0016 s⁻¹; kon [6]: 240000 M⁻¹ s⁻¹
4 | – | – | – | 0.027 s⁻¹ | – | P1-068767_E30D_E100fF (antibody, human IgG1, kappa, V domains shown, also called P1-070924) VH: EVQLVESGGGLVQPGKSLRLSCAASGFTLDDYAMHWVRQAPGKGLEWVSGIDWNSENIGYADSVKGRFTISRDNAKNSLYLQMNSLRTEDTALYYCAKVPGYSGGWIDAFDDWGQGTMVTVSS VL: not shown | –
5 | – | – | – | 0.0085 s⁻¹ | 0.0023 s⁻¹ | P1-070908 (P1-068767_E55A) IgG1.3 (antibody, V domains shown, IgG1.3) VH: EVQLVESGGGLVQPGKSLRLSCAASGFTLEDYAMHWVRQAPGKGLEWVSGIDWNSANIGYADSVKGRFTISRDNAKNSLYLQMNSLRTEDTALYYCAKVPGYSGGWIDAEDDWGQGTMVTVSS VL: not shown | Kd [6]: 11 nM; koff [6]: 0.0025 s⁻¹; kon [6]: 220000 M⁻¹ s⁻¹
6 | – | – | – | – | 0.013 s⁻¹ | P1-068767_E55A_E100fF (antibody, human IgG1, kappa, V domains shown, also called P1-070918) VH: EVQLVESGGGLVQPGKSLRLSCAASGFTLEDYAMHWVRQAPGKGLEWVSGIDWNSANIGYADSVKGRFTISRDNAKNSLYLQMNSLRTEDTALYYCAKVPGYSGGWIDAFDDWGQGTMVTVSS VL: not shown | –
7 | – | – | – | 0.0055 s⁻¹ | 0.0015 s⁻¹ | P1-070916 (P1-068767_D52N_E55A) IgG1.3 (antibody, V domains shown, IgG1.3) VH: EVQLVESGGGLVQPGKSLRLSCAASGFTLEDYAMHWVRQAPGKGLEWVSGINWNSANIGYADSVKGRFTISRDNAKNSLYLQMNSLRTEDTALYYCAKVPGYSGGWIDAEDDWGQGTMVTVSS VL: not shown | Kd [6]: 7.4 nM; koff [6]: 0.0017 s⁻¹; kon [6]: 230000 M⁻¹ s⁻¹
8 | – | – | – | – | 0.0032 s⁻¹ | P1-068767_E30D (antibody, human IgG1, kappa, V domains shown, also called P1-070904) VH: EVQLVESGGGLVQPGKSLRLSCAASGFTLDDYAMHWVRQAPGKGLEWVSGIDWNSENIGYADSVKGRFTISRDNAKNSLYLQMNSLRTEDTALYYCAKVPGYSGGWIDAEDDWGQGTMVTVSS VL: not shown | –
9 | – | 0.0092 s⁻¹ | – | 0.0028 s⁻¹ | 0.002 s⁻¹ | P1-068767_D102V (antibody, human IgG1, kappa, V domains shown, also called P1-070912) VH: EVQLVESGGGLVQPGKSLRLSCAASGFTLEDYAMHWVRQAPGKGLEWVSGIDWNSENIGYADSVKGRFTISRDNAKNSLYLQMNSLRTEDTALYYCAKVPGYSGGWIDAEDVWGQGTMVTVSS VL: not shown | –
10 | – | – | – | – | 0.0035 s⁻¹ | P1-068767_E30D_E55A (antibody, human IgG1, kappa, V domains shown, also called P1-070922) VH: EVQLVESGGGLVQPGKSLRLSCAASGFTLDDYAMHWVRQAPGKGLEWVSGIDWNSANIGYADSVKGRFTISRDNAKNSLYLQMNSLRTEDTALYYCAKVPGYSGGWIDAEDDWGQGTMVTVSS VL: not shown | –

Further lines, the binder ahead of its results:

Row | Binder | koff [1] | koff [2] | koff [3] | koff [4] | koff [5] | other results
11 | P1-068761_E32Y_E56N (antibody, human IgG1, kappa, V domains shown, also called P1-070884) VH: EVQLVESGGGLVQPGKSLRLSCAASGFTLEDYAMHWVRQAPGKGLEWVSGINWNSENIGYADSVKGRFTISRDNAKNSLYLQMNSLRTEDTALYYCAKVPGYSHGWIDAEDVWGQGTMVTVSS VL: not shown | 0.00083 s⁻¹ | 0.0032 s⁻¹ | 0.0007 s⁻¹ | – | – | –
12 | P1-068761_H100G_E100fF (antibody, human IgG1, kappa, V domains shown, also called P1-070880) VH: EVQLVESGGGLVQPGKSLRLSCAASGFTLEDEAMHWVRQAPGKGLEWVSGINWNSEEIGYADSVKGRFTISRDNAKNSLYLQMNSLRTEDTALYYCAKVPGYSGGWIDAFDVWGQGTMVTVSS VL: not shown | 0.0004 s⁻¹ | 0.0023 s⁻¹ | 0.00021 s⁻¹ | – | – | –
13 | P1-068761_E32Y_H100G (antibody, human IgG1, kappa, V domains shown, also called P1-070886) VH: EVQLVESGGGLVQPGKSLRLSCAASGFTLEDYAMHWVRQAPGKGLEWVSGINWNSEEIGYADSVKGRFTISRDNAKNSLYLQMNSLRTEDTALYYCAKVPGYSGGWIDAEDVWGQGTMVTVSS VL: not shown | 0.0013 s⁻¹ | 0.0055 s⁻¹ | 0.00092 s⁻¹ | – | – | –
14 | P1-068761_E32Y_E100fF (antibody, human IgG1, kappa, V domains shown, also called P1-070888) VH: EVQLVESGGGLVQPGKSLRLSCAASGFTLEDYAMHWVRQAPGKGLEWVSGINWNSEEIGYADSVKGRFTISRDNAKNSLYLQMNSLRTEDTALYYCAKVPGYSHGWIDAFDVWGQGTMVTVSS VL: not shown | 0.00095 s⁻¹ | 0.0019 s⁻¹ | 0.0011 s⁻¹ | – | – | –
15 | P1-068761_E55A_E100fF (antibody, human IgG1, kappa, V domains shown, also called P1-070898) VH: EVQLVESGGGLVQPGKSLRLSCAASGFTLEDEAMHWVRQAPGKGLEWVSGINWNSAEIGYADSVKGRFTISRDNAKNSLYLQMNSLRTEDTALYYCAKVPGYSHGWIDAFDVWGQGTMVTVSS VL: not shown | 0.00028 s⁻¹ | 0.0017 s⁻¹ | 0.00018 s⁻¹ | – | – | –
16 | P1-068761_E100fF (antibody, human IgG1, kappa, V domains shown, also called P1-070874) VH: EVQLVESGGGLVQPGKSLRLSCAASGFTLEDEAMHWVRQAPGKGLEWVSGINWNSEEIGYADSVKGRFTISRDNAKNSLYLQMNSLRTEDTALYYCAKVPGYSHGWIDAFDVWGQGTMVTVSS VL: not shown | 0.00022 s⁻¹ | 0.0013 s⁻¹ | 0.00013 s⁻¹ | – | – | –
17 | P1-068767_D52N_D102V (antibody, human IgG1, kappa, V domains shown, also called P1-070930) VH: EVQLVESGGGLVQPGKSLRLSCAASGFTLEDYAMHWVRQAPGKGLEWVSGINWNSENIGYADSVKGRFTISRDNAKNSLYLQMNSLRTEDTALYYCAKVPGYSGGWIDAEDVWGQGTMVTVSS VL: not shown | – | 0.0067 s⁻¹ | – | 0.0018 s⁻¹ | 0.0012 s⁻¹ | –
18 | P1-068761_E56N_E100fF (antibody, human IgG1, kappa, V domains shown, also called P1-070902) VH: EVQLVESGGGLVQPGKSLRLSCAASGFTLEDEAMHWVRQAPGKGLEWVSGINWNSENIGYADSVKGRFTISRDNAKNSLYLQMNSLRTEDTALYYCAKVPGYSHGWIDAFDVWGQGTMVTVSS VL: not shown | 0.00061 s⁻¹ | 0.003 s⁻¹ | 0.00038 s⁻¹ | – | – | –
19 | P1-068767_D52N_E100fF (antibody, human IgG1, kappa, V domains shown, also called P1-070928) VH: EVQLVESGGGLVQPGKSLRLSCAASGFTLEDYAMHWVRQAPGKGLEWVSGINWNSENIGYADSVKGRFTISRDNAKNSLYLQMNSLRTEDTALYYCAKVPGYSGGWIDAFDDWGQGTMVTVSS VL: not shown | – | – | – | – | 0.066 s⁻¹ | –
